Measured values reported in IntAct's records for PubMed 19474792.

B1: DYRK-family kinase pom1 (Schizosaccharomyces pombe (strain ATCC 38366 / 972)), Q09690 (parent)
chain: MGYLQSQKAVSLGDENTDALFKLHTSNRKSANMFGIKSELLNPSELSAVGSYSNDICPNRQSSSSTAADTSPSTNASNTNISFPEQEHKDELFMNVEPKGVGSSMDNHAITIHHSTGNGLLRSSFDHDYRQKNSPRNSIHRLSNISIGNNPIDFESSQQNNPSSLNTSSHHRTSSISNSKSFGTSLSYYNRSSKPSDWNQQNNGGHLSGVISITQDVSSVPLQSSVFSSGNHAYHASMAPKRSGSWRHTNFHSTSHPRAASIGNKSGIPPVPTIPPNIGHSTDHQHPKANISGSLTKSSSESKNLSTIQSPLKTSNSFFKELSPHSQITLSNVKNNHSHVGSQTKSHSFATPSVFDNNKPVSSDNHNNTTTSSQVHPDSRNPDPKAAPKAVSQKTNVDGHRNHEAKHGNTVQNESKSQKSSNKEGRSSRGGFFSRLSFSRSSSRMKKGSKAKHEDAPDVPAIPHAYIADSSTKSSYRNGKKTPTRTKSRMQQFINWFKPSKERSSNGNSDSASPPPVPRLSITRSQVSREPEKPEEIPSVPPLPSNFKDKGHVPQQRSVSYTPKRSSDTSESLQPSLSFASSNVLSEPFDRKVADLAMKAINSKRINKLLDDAKVMQSLLDRACIITPVRNTEVQLINTAPLTEYEQDEINNYDNIYFTGLRNVDKRRSADENTSSNFGFDDERGDYKVVLGDHIAYRYEVVDFLGKGSFGQVLRCIDYETGKLVALKIIRNKKRFHMQALVETKILQKIREWDPLDEYCMVQYTDHFYFRDHLCVATELLGKNLYELIKSNGFKGLPIVVIKSITRQLIQCLTLLNEKHVIHCDLKPENILLCHPFKSQVKVIDFGSSCFEGECVYTYIQSRFYRSPEVILGMGYGTPIDVWSLGCIIAEMYTGFPLFPGENEQEQLACIMEIFGPPDHSLIDKCSRKKVFFDSSGKPRPFVSSKGVSRRPFSKSLHQVLQCKDVSFLSFISDCLKWDPDERMTPQQAAQHDFLTGKQDVRRPNTAPARQKFARPPNIETAPIPRPLPNLPMEYNDHTLPSPKEPSNQASNLVRSSDKFPNLLTNLDYSIISDNGFLRKPVEKSRP
partner: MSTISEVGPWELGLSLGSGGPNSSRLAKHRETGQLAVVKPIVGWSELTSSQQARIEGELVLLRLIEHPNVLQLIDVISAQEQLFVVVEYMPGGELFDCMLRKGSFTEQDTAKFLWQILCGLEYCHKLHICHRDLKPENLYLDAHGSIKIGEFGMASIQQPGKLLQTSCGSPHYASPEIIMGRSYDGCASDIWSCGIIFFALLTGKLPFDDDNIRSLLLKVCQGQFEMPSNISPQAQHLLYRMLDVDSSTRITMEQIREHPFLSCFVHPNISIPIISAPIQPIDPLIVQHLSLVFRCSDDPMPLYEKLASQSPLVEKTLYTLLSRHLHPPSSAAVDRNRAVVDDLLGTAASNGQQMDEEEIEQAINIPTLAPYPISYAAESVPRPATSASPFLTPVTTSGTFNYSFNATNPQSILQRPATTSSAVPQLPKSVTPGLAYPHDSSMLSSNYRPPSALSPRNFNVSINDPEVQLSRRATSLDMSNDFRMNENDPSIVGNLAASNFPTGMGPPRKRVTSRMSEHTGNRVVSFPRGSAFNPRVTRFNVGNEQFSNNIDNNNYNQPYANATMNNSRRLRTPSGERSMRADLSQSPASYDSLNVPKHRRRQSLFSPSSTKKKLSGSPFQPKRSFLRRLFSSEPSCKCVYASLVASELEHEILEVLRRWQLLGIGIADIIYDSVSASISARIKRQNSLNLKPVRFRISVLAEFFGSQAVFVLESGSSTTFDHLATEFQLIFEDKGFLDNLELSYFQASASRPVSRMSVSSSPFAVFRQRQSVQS

Variants of: B1
Details: with cdr2_schpo cdr2, P87050

Variant	effect of a mutation on the interaction
K728R	disrupting interaction
